Reference: the emibetuzumab library of Makowski et al. (2022)

B1: VH:VL chains; a variant is named by its letters at X, in order (parent)
chain 1: QVQLVQSGAEVKKPGASVKVSCKASGYTFTDYXMHWVRQAPGQGLEWMGXVNPNXXXTTYNQKFEGRVTMTTDTSTSTAYMELRSLRSDDTAVYYCARXNXLDXWGQGTTVTVSS
chain 2: DIQMTQSPSSLSASVGDRVTITCSVSSSVSSIYLHWYQQKPGKAPKLLIYSTSNLASGVPSRFSGSGSGTDFTLTISSLQPEDFATYYCQVYSGYPLTFGGGTKVEIK

Variants of: B1
Assay: yeast display scFab, FACS + sequencing
Procedure, shortened: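 Heavy-chain CDR mutant scFab yeast surface library, FACS-sorted after labelling with biotinylated ovalbumin (260 μg/mL in PBSB, 3 h, room temperature) or soluble membrane proteins (130 μg/mL, 20 min on ice), plus anti-Myc. Gates collected the top 25% and bottom 10% of binders, and samples from two replicates were deep sequenced. Non-specific binding call: a sequence was positive if found in ≥3 of 4 positive samples (membrane protein and ovalbumin pooled) and no negatives, and negative by the converse rule.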

Q: With YRGRASGA as the variant, how does the non-specific binding call read?
A: binds

Q: Which non-specific binding call does the source give for VRGGGDAA here?
A: no binding

Q: With YRGRDASS as the variant, how does the non-specific binding call read?
A: no binding

Q: Which non-specific binding call does the source give for YRGRDASA here?
A: binds

Q: For YRGRDASF, which non-specific binding call is on record?
A: no binding

Q: For FRGGGSWA, which non-specific binding call is on record?
A: binds

Q: Which non-specific binding call does the source give for YRGKDASD here?
A: binds

Q: For YRGGDYGA, which non-specific binding call is on record?
A: no binding

Q: With VRGGGFGV as the variant, how does the non-specific binding call read?
A: no binding

Q: With VRGGGFGD as the variant, how does the non-specific binding call read?
A: binds

Q: For YRGKGFVA, which non-specific binding call is on record?
A: binds

Q: With YRGKGFVV as the variant, how does the non-specific binding call read?
A: binds

Q: For YRGKDAGA, which non-specific binding call is on record?
A: binds

Q: With FRGRDALY as the variant, how does the non-specific binding call read?
A: binds

Q: For DRGGDVSD, which non-specific binding call is on record?
A: binds

Q: With YRGGGYGF as the variant, how does the non-specific binding call read?
A: binds

Q: For FRGGDYGS, which non-specific binding call is on record?
A: binds

Q: For DRGRDDAA, which non-specific binding call is on record?
A: no binding

Q: For YRGGGYLV, which non-specific binding call is on record?
A: no binding

Q: Which non-specific binding call does the source give for YRGKGDGS here?
A: binds

Q: With YRGGGDSV as the variant, how does the non-specific binding call read?
A: no binding

Q: With YRGKSAAV as the variant, how does the non-specific binding call read?
A: binds

Q: For YRGGSDVA, which non-specific binding call is on record?
A: no binding

Q: Which non-specific binding call does the source give for VRGGGAAV here?
A: no binding

Q: For VRGGGAAY, which non-specific binding call is on record?
A: no binding

Q: Which non-specific binding call does the source give for YRGGAAWY here?
A: binds

Q: Which non-specific binding call does the source give for YRGGAAWD here?
A: binds

Q: For YRGKDVGV, which non-specific binding call is on record?
A: binds

Q: With SRGGDDVA as the variant, how does the non-specific binding call read?
A: no binding

Q: With VRGKAAVS as the variant, how does the non-specific binding call read?
A: binds

Q: For FRGKDASA, which non-specific binding call is on record?
A: no binding

Q: For VRGKGAAD, which non-specific binding call is on record?
A: binds

Q: For FRGKGAAV, which non-specific binding call is on record?
A: binds

Q: Which non-specific binding call does the source give for FRGKGAAS here?
A: binds

Q: Which non-specific binding call does the source give for FRGKGAAA here?
A: binds

Q: With YRGGGALS as the variant, how does the non-specific binding call read?
A: binds

Q: With DRGGSAGD as the variant, how does the non-specific binding call read?
A: no binding

Q: With VRGGGDGY as the variant, how does the non-specific binding call read?
A: no binding

Q: With FRGKGFGV as the variant, how does the non-specific binding call read?
A: binds

Q: For YRGGTAAA, which non-specific binding call is on record?
A: binds

Q: For YRGKSSGF, which non-specific binding call is on record?
A: binds

Q: Which non-specific binding call does the source give for FRGKGSWD here?
A: binds

Q: Which non-specific binding call does the source give for YRGKDAWS here?
A: binds

Q: For YRGKDAWY, which non-specific binding call is on record?
A: binds

Q: For VRGKGASA, which non-specific binding call is on record?
A: binds

Q: With FRGGASSD as the variant, how does the non-specific binding call read?
A: binds

Q: Which non-specific binding call does the source give for YRGGASGA here?
A: binds

Q: With DRGGDDWY as the variant, how does the non-specific binding call read?
A: no binding

Q: For DRGGDDWV, which non-specific binding call is on record?
A: no binding

Q: With FRGGSAVY as the variant, how does the non-specific binding call read?
A: binds

Q: For FRGGSAVD, which non-specific binding call is on record?
A: binds

Q: For FRGGSSAA, which non-specific binding call is on record?
A: binds

Q: Which non-specific binding call does the source give for DRGGDSLD here?
A: no binding

Q: With FRGRDDVF as the variant, how does the non-specific binding call read?
A: no binding

Q: For FRGRAAVD, which non-specific binding call is on record?
A: binds

Q: For VRGKGSLA, which non-specific binding call is on record?
A: binds

Q: With YRGKGAVS as the variant, how does the non-specific binding call read?
A: binds

Q: With YRGKGAVF as the variant, how does the non-specific binding call read?
A: binds

Q: For YRGGSAGF, which non-specific binding call is on record?
A: binds

Q: For YRGGSAGA, which non-specific binding call is on record?
A: binds

Q: Which non-specific binding call does the source give for YRGGSSGY here?
A: binds

Q: For VRGGDDVF, which non-specific binding call is on record?
A: no binding

Q: With VRGKGAWD as the variant, how does the non-specific binding call read?
A: binds

Q: For VRGKGAWA, which non-specific binding call is on record?
A: binds

Q: With YRGGDYSV as the variant, how does the non-specific binding call read?
A: no binding

Q: With DRGRDAGD as the variant, how does the non-specific binding call read?
A: no binding

Q: For DRGRDAGA, which non-specific binding call is on record?
A: no binding

Q: With YRGGGSVF as the variant, how does the non-specific binding call read?
A: binds

Q: For SRGKGDAD, which non-specific binding call is on record?
A: no binding

Q: Which non-specific binding call does the source give for VRGKGSGF here?
A: binds

Q: With VRGKGSGA as the variant, how does the non-specific binding call read?
A: binds

Q: Which non-specific binding call does the source give for VRGKGSGV here?
A: binds

Q: With FRGGGVGV as the variant, how does the non-specific binding call read?
A: binds

Q: With DRGGDDAA as the variant, how does the non-specific binding call read?
A: no binding

Q: With DRGGDDAD as the variant, how does the non-specific binding call read?
A: no binding

Q: Which non-specific binding call does the source give for FRGGGSVS here?
A: binds

Q: With FRGKSAAA as the variant, how does the non-specific binding call read?
A: binds

Q: For FRGKGAGA, which non-specific binding call is on record?
A: binds

Q: For FRGKGAGS, which non-specific binding call is on record?
A: binds

Q: For FRGKGAGY, which non-specific binding call is on record?
A: binds

Q: For VRGGDDGV, which non-specific binding call is on record?
A: no binding

Q: With VRGGDDGS as the variant, how does the non-specific binding call read?
A: no binding

Q: For YRGGDDSS, which non-specific binding call is on record?
A: no binding

Q: For YRGGDDSV, which non-specific binding call is on record?
A: no binding

Q: With YRGGGDGF as the variant, how does the non-specific binding call read?
A: no binding

Q: With YRGGGDWV as the variant, how does the non-specific binding call read?
A: no binding

Q: For FRGKGAVD, which non-specific binding call is on record?
A: binds

Q: Which non-specific binding call does the source give for FRGKGAVS here?
A: binds

Q: Which non-specific binding call does the source give for YRGKAFGV here?
A: binds

Q: For VRGGGVGV, which non-specific binding call is on record?
A: binds

Q: Which non-specific binding call does the source give for SRGKSFGS here?
A: binds

Q: For VRGGDAVA, which non-specific binding call is on record?
A: no binding

Q: Which non-specific binding call does the source give for VRGGDAVS here?
A: no binding

Q: For YRGKASVD, which non-specific binding call is on record?
A: binds

Q: With YRGKSSAD as the variant, how does the non-specific binding call read?
A: binds

Q: Which non-specific binding call does the source give for FRGRDDLV here?
A: no binding

Q: For YRGGASWV, which non-specific binding call is on record?
A: binds

Q: With YRGKGVGV as the variant, how does the non-specific binding call read?
A: binds

Q: With YRGKGVGD as the variant, how does the non-specific binding call read?
A: binds

Q: For DRGGDDVV, which non-specific binding call is on record?
A: no binding

Q: For DRGGDDVY, which non-specific binding call is on record?
A: no binding

Q: With DRGGDDVD as the variant, how does the non-specific binding call read?
A: no binding

Q: With YRGRDDWF as the variant, how does the non-specific binding call read?
A: no binding

Q: With YRGKGYAA as the variant, how does the non-specific binding call read?
A: binds

Q: For DRGGGDGV, which non-specific binding call is on record?
A: no binding

Q: With ARGRDAWV as the variant, how does the non-specific binding call read?
A: binds

Q: For YRGGGFAD, which non-specific binding call is on record?
A: binds

Q: Which non-specific binding call does the source give for VRGGDAVY chain 1 G44D here?
A: no binding

Q: For DRGGDSSS, which non-specific binding call is on record?
A: no binding

Q: Which non-specific binding call does the source give for YRGKGFGS here?
A: binds

Q: For YRGKASGD, which non-specific binding call is on record?
A: binds

Q: For FRGKGAWD, which non-specific binding call is on record?
A: binds

Q: Which non-specific binding call does the source give for DRGGSSAA here?
A: no binding

Q: Which non-specific binding call does the source give for FRGGSSGV here?
A: binds

Q: For FRGGSSGS, which non-specific binding call is on record?
A: binds

Q: For ARGGDDGA, which non-specific binding call is on record?
A: no binding

Q: Which non-specific binding call does the source give for YRGKGALS here?
A: binds

Q: With YRGKGALA as the variant, how does the non-specific binding call read?
A: binds

Q: With YRGGGSGS as the variant, how does the non-specific binding call read?
A: binds

Q: With YRGKAAVD as the variant, how does the non-specific binding call read?
A: binds

Q: With VRGGDAAS as the variant, how does the non-specific binding call read?
A: no binding
